Legend:
YTHDF2 YTH domain = target: T1, YTHDF2 YTH domain (UniProt Q9Y5A9 383-553); conditions: protein: recombinant; tags: N-terminal His6 and GST; label: none
T1 sequence: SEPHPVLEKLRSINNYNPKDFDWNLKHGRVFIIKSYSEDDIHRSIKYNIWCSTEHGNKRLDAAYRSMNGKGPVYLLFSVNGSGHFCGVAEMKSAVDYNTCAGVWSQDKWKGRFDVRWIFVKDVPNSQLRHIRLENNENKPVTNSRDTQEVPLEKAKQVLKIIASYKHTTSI

YTHDC2 YTH domain = target: T2, YTHDC2 YTH domain (UniProt Q9H6S0 1285-1424); conditions: protein: recombinant
T2 sequence: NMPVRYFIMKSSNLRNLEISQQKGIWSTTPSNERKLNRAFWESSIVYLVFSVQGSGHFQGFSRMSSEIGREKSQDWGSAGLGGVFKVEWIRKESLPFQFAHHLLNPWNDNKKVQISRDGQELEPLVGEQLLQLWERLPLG

YTHDF3 YTH domain = target: T3, YTHDF3 YTH domain (UniProt Q7Z739 391-585); conditions: protein: recombinant
T3 sequence: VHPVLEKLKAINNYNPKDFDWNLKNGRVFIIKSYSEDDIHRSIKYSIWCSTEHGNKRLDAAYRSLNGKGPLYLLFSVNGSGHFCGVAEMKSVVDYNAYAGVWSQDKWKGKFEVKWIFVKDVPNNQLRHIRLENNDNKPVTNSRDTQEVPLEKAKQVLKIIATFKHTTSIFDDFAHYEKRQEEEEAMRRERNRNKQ

YTHDF1 YTH domain = target: T4, YTHDF1 YTH domain (UniProt Q9BYJ9 375-552); conditions: protein: recombinant
T4 sequence: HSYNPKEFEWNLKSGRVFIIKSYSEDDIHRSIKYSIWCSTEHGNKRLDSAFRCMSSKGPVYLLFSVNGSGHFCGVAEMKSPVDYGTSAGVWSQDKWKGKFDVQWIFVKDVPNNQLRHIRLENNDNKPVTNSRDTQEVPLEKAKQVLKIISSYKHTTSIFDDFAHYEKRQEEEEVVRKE

YTHDC1 YTH domain = YTHDC1 YTH domain (UniProt Q96MU7 345-509); test: EMSA; 20 nM RNA; FP: 20 mM HEPES/KOH pH 7.5, 50 mM NaCl, 0.005% Tween 20, 1 mM GSH (DTT), 4 C; EMSA: 20 mM HEPES pH 8.2, 50 mM NaCl, 0.05% Triton X-100, 5% glycerol, 4 C, 0.5x T

Row | Binder | IC50 (YTHDF2 YTH domain) | binding result (YTHDC2 YTH domain) | binding result (YTHDF3 YTH domain) | binding result (YTHDF1 YTH domain) | binding result (YTHDC1 YTH domain)
1 | UUCUUCUGUGGACUGUG (ssRNA, m6A at position 12) [unlabeled m6A RNA probe] | 115 nM | – | – | – | –
2 | UUCUUCUGUGGACUGUG (ssRNA, m6A at position 12) [FAM-17mer m6A RNA probe] | – | binds | binds | binds | binds

— paper PMC11862924, “Phenylpyrazoles as Inhibitors of the m6A RNA-Binding Protein YTHDF2”
